Results reported in patent US10370436B2, “Anti-pseudomonas Psl binding molecules and uses thereof” (priority 2011, dated 2019).
Positions count from the first letter of the chain named.

B1: WapR-001: anti-Psl antibody, VH SEQ ID NO: 5 and VL SEQ ID NO: 6 (antibody, V domains shown)
VH: EVQLLESGGGLVQPGGSLRLSCSASGFTFSRYPMHWVRQAPGKGLEYVSDIGTNGGSTNYADSVKGRFTISRDNSKNTVYLQMSSLRAEDTAVYHCVAGIAAAYGFDVWGQGTMVTVSS
VL: QAGLTQPASVSGSPGQSITISCTGTSSDIATYNYVSWYQQHPGKAPKLMIYEGTKRPSGVSNRFSGSKSGNTASLTISGLQAEDEADYYCSSYARSYTYVFGTGTELTVL
modifications: WapR-001 VH; WapR-001 VL
B2: WapR-002: anti-Psl antibody, VH SEQ ID NO: 7 and VL SEQ ID NO: 8 (antibody, V domains shown)
VH: QVQLVQSGGGLVQPGGSLRLSCSASGFTFSSYPMHWVRQAPGKGLDYVSDISPNGGSTNYADSVKGRFTISRDNSKNTLFLQMSSLRAEDTAVYYCVMGLVPYGFDIWGQGTLVTVSS
VL: QTVVTQPASVSGSPGQSITISCTGTSSDVGGYNYVSWYQQHPGKAPKLMIYEVSNRPSGVSNHFSGSKSGNTASLTISGLQAEDEADYYCSSYTTSSTYVFGTGTKVTVL
modifications: WapR-002 VH; WapR-002 VL
B3: WapR-003: anti-Psl antibody, VH SEQ ID NO: 9 and VL SEQ ID NO: 10 (antibody, V domains shown)
VH: B2 VH with V2M, S57A, L79V, F80Y, I107N, L113M
VL: QTVVTQPASVSASPGQSITISCAGTSGDVGNYNFVSWYQQHPGKAPKLLIYEGSQRPSGVSNRFSGSRSGNTASLTISGLQAEDEADYYCSSYARSYTYVFGTGTKLTVL
modifications: WapR-003 VH; WapR-003 VL
B4: WapR-007: antibody, VH SEQ ID NO: 13 and VL SEQ ID NO: 14 (antibody, V domains shown)
VH: EVQLVQSGADVKKPGASVRVTCKASGYTFTGHNIHWVRQAPGQGLEWMGWINPDSGATSYAQKFQGRVTMTRDTSITTAYMDLSRLRSDDTAVYYCATDTLLSNHWGQGTLVTVSS
VL: SSELTQDPAVSVALGQTVRITCQGDSLRSYYTNWFQQKPGQAPLLVVYAKNKRPPGIPDRFSGSSSGNTASLTITGAQAEDEADYYCHSRDSSGNHVVFGGGTKLTVL
modifications: WapR-007 VH; WapR-007 VL

tested on: Psl (enriched carbohydrate purified from PAO1ΔwbpL/algD/pelA); test: Psl capture binding assay (FORTEBIO OCTET 384); design: species or system Pseudomonas aeruginosa; settings: FIG. 3K
Description: To confirm that all of the antibodies bound to the same antigen, a Psl capture binding assay was performed using a FORTEBIO® OCTET® 384 instrument as described above. The antigen was proteinase K-treated enriched carbohydrate purified from PAO1ΔwbpL/algD/pelA (O-antigen-, alginate- and Pel exopolysaccharide-deficient). Individual antibodies were bound to aminopropylsilane biosensors followed by blocking and the addition of the enriched carbohydrate antigen. After washing to remove unbound antigen, binding of unlabelled mAbs to captured antigen was assessed.

Row | Molecule | reactivity of unlabelled mAb to captured Psl
1 | B1 | reacted
2 | B2 | reacted
3 | B3 | reacted
4 | B4 | Minimal reactivity

same assay, conditions: antibody bound to aminopropylsilane biosensors; FIG. 3K

Row | Molecule | capture of Psl antigen by biosensor-bound antibody
5 | B1 | capable of capturing antigen
6 | B2 | capable of capturing antigen
7 | B3 | capable of capturing antigen
8 | B4 | capable of capturing antigen
